Source: patent US20220227882A1 (TRUSTEES OF TUFTS COLLEGE, published 2022)
Numbering of substitutions follows the chain as printed.

Key:
[1] = biological target: T1, Q447A (Homo sapiens, UniProt P78325); assay: high-throughput flow cytometry, HEK293 cells with mutant ADAM8, high stringency; range in parentheses
T1 construct: expressed on HEK293 cells; also called human ADAM8 point mutant Q447A
T1 sequence (ADAM8, looked up): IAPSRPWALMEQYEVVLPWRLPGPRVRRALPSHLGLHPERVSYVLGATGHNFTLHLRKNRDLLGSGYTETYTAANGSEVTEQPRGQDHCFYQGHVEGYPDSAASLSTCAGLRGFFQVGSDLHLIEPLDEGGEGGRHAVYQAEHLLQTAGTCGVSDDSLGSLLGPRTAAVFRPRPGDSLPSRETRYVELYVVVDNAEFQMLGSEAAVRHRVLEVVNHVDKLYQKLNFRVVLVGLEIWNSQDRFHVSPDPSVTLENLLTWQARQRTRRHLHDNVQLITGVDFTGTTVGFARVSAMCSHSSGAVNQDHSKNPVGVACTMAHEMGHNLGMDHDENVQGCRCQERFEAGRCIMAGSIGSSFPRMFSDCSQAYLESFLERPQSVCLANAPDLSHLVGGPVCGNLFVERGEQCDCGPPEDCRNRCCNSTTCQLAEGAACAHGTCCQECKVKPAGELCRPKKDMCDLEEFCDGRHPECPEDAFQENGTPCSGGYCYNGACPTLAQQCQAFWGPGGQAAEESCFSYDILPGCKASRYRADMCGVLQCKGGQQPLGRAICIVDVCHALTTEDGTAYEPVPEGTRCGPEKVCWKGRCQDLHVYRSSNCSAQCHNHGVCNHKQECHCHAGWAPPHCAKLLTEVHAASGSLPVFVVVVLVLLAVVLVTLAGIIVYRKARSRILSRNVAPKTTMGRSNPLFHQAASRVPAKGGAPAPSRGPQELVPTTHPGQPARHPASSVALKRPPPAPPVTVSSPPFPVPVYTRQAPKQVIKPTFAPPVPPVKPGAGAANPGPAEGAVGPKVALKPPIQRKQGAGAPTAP
Procedure: (§1) A variety of experimental parameters were optimized for high-throughput flow cytometry including blocking buffer, and primary and secondary antibody concentrations, to identify the optimal conditions for screening. Through these studies ADP2 and ADP13 were determined to be high affinity binding antibodies.
(§2) Thus, for these studies antigen-binding fragments (Fabs) of ADP2 and ADP13, which bind with lower affinity than the full antibody, were generated. In addition, higher binding stringency conditions were tested, such as increased pH, salinity, and temperature, and/or increased washing, to weaken binding sufficiently to allow identification of critical binding residues in flow cytometry. The final experimental flow cytometry conditions were: primary antibody incubation with ADP2 Fab (0.50 μg/ml), ADP13 Fab (5.00 μg/ml) and Control Ab (0.16 μg/ml) for 60 minutes in flow cytometry buffer containing 10% goat serum in PBS (Ca²⁺ and Mg²⁺ free). […] Samples were washed three times after primary antibody incubation and twice after secondary antibody incubation with PBS (Ca²⁺ and Mg′ free). Next, HEK293 cells expressing WT or mutated ADAM8 proteins or EV DNA were incubated with ADP2 or ADP13 Fabs or Control Ab at their optimal concentrations. Fab binding was detected using Alexa Fluor 488-conjugated secondary antibodies and mean cellular fluorescence determined using the Intellicyt iQue flow cytometry platform. […] This counter-screen strategy facilitates the exclusion of mutants that are locally misfolded or that have an expression defect. Binding of each test Fab to each mutant clone in the alanine scanning library was determined, in duplicate, by high-throughput flow cytometry.

[2] = biological target: T2, A462S (Homo sapiens, UniProt P78325); assay: as above
T2 construct: expressed on HEK293 cells; also called human ADAM8 point mutant A462S
T2 sequence (ADAM8, looked up): T1 sequence (ADAM8, looked up) with A431Q, A446S
Procedure: as §1, §2

B1: ADP2 Fab (Fab, V domains shown)
VH: EVKLVESGGGLVQPGGSLSLSCAASGFSFPDYYMSWVRQPPGKALEWLGFIRDSANGYTTEYIASVKGRFTFSRDNSQSILYLQMNALRAEDSATYYCARYSRYYGMDYWGQGTSVTVSS
VL: SIVMTQTPKILLVSAGDRVTITCKASQTVNYDVAWYQQKPGQSPKPVIYFASNRYTGVPDRFTGSGFGTDFTFTISTVQAEDLAVYFCQQDYSAPWTFGGGTKLEIK
[1]
  Binding Reactivity (% WT): 46.5 % WT
[2]
  Binding Reactivity (% WT): 50.1 % WT
